Paper PMC7684278

Columns and labels:
[1] = target: Cas7 of the Desulfovibrio vulgaris type I-C Cascade (Desulfovibrio vulgaris); test: native MS; purified type I-C Cascade with its crRNA, about 6 uM, in 100 mM ammonium acetate; positive mode; in-source trapping at -120 and -300 V to release subunits and subcomplexes
[2] = target: Cas7 of the Desulfovibrio vulgaris type I-C Cascade (Desulfovibrio vulgaris); test: cryo-EM structure; purified type I-C Cascade with its crRNA, 0.3 mg/mL in 20 mM HEPES-NaOH pH 7.5, 100 mM KCl, 1 mM TCEP; graphene oxide grids; 3.1 A (3.13 A) reconstruction
[3] = target: Cas8c, large subunit of the Desulfovibrio vulgaris type I-C Cascade (Desulfovibrio vulgaris); test: native MS; purified type I-C Cascade with its crRNA, about 6 uM, in 100 mM ammonium acetate; positive mode; in-source trapping at -120 and -300 V to release subunits and subcomplexes

stoichiometry N [1]	stoichiometry N [2]	stoichiometry N [3]	Substance
7	7		Cas7 of the Desulfovibrio vulgaris type I-C Cascade (natural protein)
		2	non-canonical small subunit (SSU) Cas11c of the Desulfovibrio vulgaris type I-C Cascade (domain or fragment)
